Target: the molecule itself
Assay: crystal structure

B1: human TREX2 protein (enzyme)
chain: MSEAPRAETFVFLDLEATGLPSVEPEIAELSLFAVHRSSLENPEHDESGALVLPRVLDKLTLCMCPERPFTAKASEITGLSSEGLARCRKAGFDGAVVRTLQAFLSRQAGPICLVAHNGFDYDFPLLCAELRRLGARLPRDTVCLDTLPALRGLDRAHSHGTRARGRQGYSLGSLFHRYFRAEPSAAHSAEGDVHTLLLIFLHRAAELLAWADEQARGWAHIEPMYLPPDDPSLEA
- binding result: binds

— PMC2673414 (Nucleic Acids Research, 2009)
